Data on one molecule can be found in publication PMC10942606.

Assay in all cases: MST
In one data set the target is T1, Pcf1_WHD (Schizosaccharomyces pombe, UniProt Q1MTN9 471-544).
T1 sequence: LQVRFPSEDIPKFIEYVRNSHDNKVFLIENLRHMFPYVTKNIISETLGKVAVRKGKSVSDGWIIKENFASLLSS

For another data set, the target named is T2, Pcf1_KER (Schizosaccharomyces pombe, UniProt Q1MTN9 56-170).
T2 sequence: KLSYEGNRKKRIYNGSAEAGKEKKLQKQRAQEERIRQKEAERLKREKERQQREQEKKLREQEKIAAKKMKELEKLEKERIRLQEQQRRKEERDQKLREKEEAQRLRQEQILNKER

The next data set addresses T3, Pcf1-PIP*;Pcf2;Pcf3 (Schizosaccharomyces …, UniProt Q1MTN9;O13985;Q9Y825 1-544;1-512;1-408, Q172A;L175A;F178A;F179A||).
T3 sequence 1: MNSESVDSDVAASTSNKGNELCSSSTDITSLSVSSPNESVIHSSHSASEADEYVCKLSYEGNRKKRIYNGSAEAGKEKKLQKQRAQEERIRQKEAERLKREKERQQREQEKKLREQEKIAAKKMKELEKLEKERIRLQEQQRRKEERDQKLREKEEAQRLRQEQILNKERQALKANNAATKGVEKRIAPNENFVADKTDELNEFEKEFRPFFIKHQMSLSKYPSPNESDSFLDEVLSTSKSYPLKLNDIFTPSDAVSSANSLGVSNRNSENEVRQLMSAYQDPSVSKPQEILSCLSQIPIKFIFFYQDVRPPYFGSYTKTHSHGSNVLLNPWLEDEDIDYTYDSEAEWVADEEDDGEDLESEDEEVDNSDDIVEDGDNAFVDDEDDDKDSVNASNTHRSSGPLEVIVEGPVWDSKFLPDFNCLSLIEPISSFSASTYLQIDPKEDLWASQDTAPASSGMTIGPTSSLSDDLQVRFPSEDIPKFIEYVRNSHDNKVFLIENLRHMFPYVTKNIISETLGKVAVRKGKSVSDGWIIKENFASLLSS
T3 sequence 2: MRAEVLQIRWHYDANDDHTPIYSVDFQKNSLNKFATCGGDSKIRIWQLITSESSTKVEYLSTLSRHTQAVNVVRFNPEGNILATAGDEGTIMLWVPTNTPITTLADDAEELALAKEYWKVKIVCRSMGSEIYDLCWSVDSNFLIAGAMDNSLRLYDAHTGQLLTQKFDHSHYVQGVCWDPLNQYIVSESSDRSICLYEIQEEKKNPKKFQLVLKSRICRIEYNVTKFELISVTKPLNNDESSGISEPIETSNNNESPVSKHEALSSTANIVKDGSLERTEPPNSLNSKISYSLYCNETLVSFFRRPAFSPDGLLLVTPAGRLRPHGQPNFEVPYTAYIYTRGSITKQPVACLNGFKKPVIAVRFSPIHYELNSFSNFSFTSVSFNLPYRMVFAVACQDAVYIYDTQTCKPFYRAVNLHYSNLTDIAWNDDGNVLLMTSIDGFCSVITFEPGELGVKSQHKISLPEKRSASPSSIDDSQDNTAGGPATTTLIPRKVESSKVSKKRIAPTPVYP
T3 sequence 3: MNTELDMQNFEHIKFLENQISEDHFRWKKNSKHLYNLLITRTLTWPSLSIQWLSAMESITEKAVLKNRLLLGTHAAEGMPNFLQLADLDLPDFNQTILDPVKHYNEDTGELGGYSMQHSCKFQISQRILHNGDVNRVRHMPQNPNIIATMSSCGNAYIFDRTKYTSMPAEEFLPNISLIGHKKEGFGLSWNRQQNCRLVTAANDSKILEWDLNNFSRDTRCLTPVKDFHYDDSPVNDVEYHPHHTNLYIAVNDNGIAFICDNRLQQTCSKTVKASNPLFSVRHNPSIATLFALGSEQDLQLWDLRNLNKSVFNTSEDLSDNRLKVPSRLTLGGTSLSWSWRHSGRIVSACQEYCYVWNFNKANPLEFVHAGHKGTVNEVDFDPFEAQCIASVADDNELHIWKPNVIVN

Another data set has as its target T4, Pcf1 WT;Pcf2;Pcf3 (Schizosaccharomyces …, UniProt Q1MTN9;O13985;Q9Y825 1-544;1-512;1-408, ||).
T4 sequence 1: T3 sequence 1 with A172Q, A175L, A178F, A179F
T4 sequence 2: T3 sequence 2
T4 sequence 3: T3 sequence 3

Numbering of substitutions follows the chain as printed.

B1: 40 bp dsDNA, Alexa488 (dsDNA)
DNA 1: ATCAATATCCACCTGCAGATACTACCAAAAGTGTATTTGG
DNA 2: CCAAATACACTTTTGGTAGTATCTGCAGGTGGATATTGAT
Consider B1, for which, in the data set with Pcf1_WHD, the binding result is reported as “no binding”. The “apparent K (half saturation)” value stood at 1100 ± 200 nM in the data set with Pcf1_KER, 700 ± 100 nM with Pcf1-PIP*;Pcf2;Pcf3 and 700 ± 100 nM with Pcf1 WT;Pcf2;Pcf3.
